Measured values: US20240201167A1 (ALBERT EINSTEIN COLLEGE OF MEDICINE, published 2024)
Where “and” joins values, the source holds several entries; their conditions need not be identical. Equal values may be shown once. Blank lines part the entries; values can stand above or below the binder they belong to.

How the values were obtained:
FAS expressed on cells = target: T1, FAS expressed on cells (human, UniProt P25445 26-335); experiment: cell-cell screen, flow cytometry
T1 construct: whole, on cells
T1 sequence (looked up): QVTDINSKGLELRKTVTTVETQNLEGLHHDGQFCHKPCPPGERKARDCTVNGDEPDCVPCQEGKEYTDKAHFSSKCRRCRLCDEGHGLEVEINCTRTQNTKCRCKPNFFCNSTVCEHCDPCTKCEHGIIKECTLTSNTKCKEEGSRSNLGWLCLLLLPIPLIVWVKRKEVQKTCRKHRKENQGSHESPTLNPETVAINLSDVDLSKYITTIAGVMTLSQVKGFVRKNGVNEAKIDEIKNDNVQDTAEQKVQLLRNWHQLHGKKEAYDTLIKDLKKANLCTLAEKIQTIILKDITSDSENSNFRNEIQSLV
Procedure: (§1) As illustrated, cells were transfected with expression cassettes expressing labeled receptors or labeled ligands, receptor-expressing cells were mixed with ligand-expressing cells and cell-to-cell binding was monitored by detecting the labels associated with the receptor and the ligand. […] Binding was detected using an anti-mIgG2A ab and flow cytometry. The binding curves were fit and the Bmax, EC50, and hill coefficient were calculated using the equation Y=Bmax*Xh/(Kdh+Xh).

TNFR2 expressed on cells = target: T2, TNFR2 expressed on cells (human, UniProt P20333 23-461); experiment: cell-cell screen, flow cytometry
T2 construct: whole, on cells
T2 sequence (looked up): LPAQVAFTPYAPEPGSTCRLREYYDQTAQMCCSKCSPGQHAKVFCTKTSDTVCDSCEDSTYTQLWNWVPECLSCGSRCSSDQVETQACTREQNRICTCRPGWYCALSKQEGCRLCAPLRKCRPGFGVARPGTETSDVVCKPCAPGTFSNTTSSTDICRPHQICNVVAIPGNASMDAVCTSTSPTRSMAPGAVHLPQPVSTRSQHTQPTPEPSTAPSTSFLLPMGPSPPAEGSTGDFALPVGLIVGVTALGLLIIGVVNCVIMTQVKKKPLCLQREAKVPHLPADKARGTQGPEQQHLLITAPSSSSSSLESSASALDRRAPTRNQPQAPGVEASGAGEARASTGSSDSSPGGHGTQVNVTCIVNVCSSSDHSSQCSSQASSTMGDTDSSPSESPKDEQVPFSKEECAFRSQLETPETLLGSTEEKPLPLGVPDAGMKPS
Procedure: as §1

[1] = target: T3, SorCS1 expressed on cells (UniProt Q8WY21 34-1168, limits assumed); experiment: cell-cell binding
T3 construct: whole, on cells
T3 sequence (looked up): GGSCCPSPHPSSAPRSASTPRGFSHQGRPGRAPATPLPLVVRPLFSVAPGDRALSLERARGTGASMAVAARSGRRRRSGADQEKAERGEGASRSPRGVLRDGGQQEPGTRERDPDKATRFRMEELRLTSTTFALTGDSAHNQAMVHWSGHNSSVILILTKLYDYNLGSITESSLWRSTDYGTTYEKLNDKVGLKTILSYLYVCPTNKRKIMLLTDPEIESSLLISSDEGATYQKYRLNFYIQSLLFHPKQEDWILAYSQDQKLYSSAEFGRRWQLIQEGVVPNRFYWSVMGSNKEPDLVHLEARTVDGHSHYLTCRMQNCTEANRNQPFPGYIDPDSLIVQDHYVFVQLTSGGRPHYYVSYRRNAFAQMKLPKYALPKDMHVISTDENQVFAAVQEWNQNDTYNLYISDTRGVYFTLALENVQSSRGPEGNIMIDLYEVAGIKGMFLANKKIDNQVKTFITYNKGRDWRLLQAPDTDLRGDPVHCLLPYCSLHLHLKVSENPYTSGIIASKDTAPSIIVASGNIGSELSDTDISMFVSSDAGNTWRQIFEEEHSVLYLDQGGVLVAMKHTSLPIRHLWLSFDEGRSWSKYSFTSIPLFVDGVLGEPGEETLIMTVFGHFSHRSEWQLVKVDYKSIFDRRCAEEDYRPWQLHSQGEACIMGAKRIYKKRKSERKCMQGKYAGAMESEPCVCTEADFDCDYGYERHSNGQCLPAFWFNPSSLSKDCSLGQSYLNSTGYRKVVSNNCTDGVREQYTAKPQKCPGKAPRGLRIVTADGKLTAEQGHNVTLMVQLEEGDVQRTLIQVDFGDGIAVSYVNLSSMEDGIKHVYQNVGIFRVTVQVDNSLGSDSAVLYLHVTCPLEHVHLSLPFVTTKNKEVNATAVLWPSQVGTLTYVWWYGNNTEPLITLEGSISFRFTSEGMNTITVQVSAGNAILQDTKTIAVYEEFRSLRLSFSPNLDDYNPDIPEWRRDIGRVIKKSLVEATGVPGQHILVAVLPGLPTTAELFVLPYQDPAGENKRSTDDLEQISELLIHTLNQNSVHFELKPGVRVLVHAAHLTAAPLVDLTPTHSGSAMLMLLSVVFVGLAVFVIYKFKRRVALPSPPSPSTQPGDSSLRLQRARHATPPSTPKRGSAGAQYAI

[2] = target: T4, SorCS3 expressed on cells (UniProt Q9UPU3 134-1222, limits assumed); experiment: cell-cell binding
T4 construct: whole, on cells
T4 sequence (looked up): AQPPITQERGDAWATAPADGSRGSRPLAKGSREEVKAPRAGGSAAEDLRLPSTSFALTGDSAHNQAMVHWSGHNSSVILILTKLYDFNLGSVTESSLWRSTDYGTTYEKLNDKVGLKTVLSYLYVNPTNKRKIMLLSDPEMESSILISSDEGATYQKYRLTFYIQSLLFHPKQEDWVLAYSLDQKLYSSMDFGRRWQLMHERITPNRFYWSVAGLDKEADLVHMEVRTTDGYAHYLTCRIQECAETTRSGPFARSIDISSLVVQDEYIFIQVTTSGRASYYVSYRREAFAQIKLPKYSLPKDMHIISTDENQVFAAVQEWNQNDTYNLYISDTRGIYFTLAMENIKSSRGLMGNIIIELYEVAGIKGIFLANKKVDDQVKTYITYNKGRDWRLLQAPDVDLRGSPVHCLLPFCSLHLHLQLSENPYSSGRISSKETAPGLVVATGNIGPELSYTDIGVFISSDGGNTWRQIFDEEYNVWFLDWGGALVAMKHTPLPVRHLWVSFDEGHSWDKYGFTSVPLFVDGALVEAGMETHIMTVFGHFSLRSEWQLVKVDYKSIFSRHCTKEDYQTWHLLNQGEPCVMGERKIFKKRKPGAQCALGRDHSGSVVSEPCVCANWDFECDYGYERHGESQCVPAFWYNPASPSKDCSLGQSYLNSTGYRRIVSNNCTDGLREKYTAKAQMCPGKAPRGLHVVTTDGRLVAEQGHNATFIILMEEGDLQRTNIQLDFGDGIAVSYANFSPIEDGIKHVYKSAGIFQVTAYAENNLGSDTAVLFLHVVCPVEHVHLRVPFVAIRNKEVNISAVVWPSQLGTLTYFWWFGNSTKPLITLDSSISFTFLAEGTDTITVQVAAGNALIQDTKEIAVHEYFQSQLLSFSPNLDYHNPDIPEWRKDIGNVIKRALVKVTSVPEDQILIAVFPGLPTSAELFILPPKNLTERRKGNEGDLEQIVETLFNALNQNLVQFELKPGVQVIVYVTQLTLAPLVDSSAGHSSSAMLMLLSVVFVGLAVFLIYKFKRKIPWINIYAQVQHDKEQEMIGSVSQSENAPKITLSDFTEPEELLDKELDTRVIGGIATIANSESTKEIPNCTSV

[3] = target: T5, SorCS2 expressed on cells (UniProt Q96PQ0 51-1159, limits assumed); experiment: cell-cell binding
T5 construct: whole, on cells
T5 sequence (Q96PQ0 51-1159 limits assumed): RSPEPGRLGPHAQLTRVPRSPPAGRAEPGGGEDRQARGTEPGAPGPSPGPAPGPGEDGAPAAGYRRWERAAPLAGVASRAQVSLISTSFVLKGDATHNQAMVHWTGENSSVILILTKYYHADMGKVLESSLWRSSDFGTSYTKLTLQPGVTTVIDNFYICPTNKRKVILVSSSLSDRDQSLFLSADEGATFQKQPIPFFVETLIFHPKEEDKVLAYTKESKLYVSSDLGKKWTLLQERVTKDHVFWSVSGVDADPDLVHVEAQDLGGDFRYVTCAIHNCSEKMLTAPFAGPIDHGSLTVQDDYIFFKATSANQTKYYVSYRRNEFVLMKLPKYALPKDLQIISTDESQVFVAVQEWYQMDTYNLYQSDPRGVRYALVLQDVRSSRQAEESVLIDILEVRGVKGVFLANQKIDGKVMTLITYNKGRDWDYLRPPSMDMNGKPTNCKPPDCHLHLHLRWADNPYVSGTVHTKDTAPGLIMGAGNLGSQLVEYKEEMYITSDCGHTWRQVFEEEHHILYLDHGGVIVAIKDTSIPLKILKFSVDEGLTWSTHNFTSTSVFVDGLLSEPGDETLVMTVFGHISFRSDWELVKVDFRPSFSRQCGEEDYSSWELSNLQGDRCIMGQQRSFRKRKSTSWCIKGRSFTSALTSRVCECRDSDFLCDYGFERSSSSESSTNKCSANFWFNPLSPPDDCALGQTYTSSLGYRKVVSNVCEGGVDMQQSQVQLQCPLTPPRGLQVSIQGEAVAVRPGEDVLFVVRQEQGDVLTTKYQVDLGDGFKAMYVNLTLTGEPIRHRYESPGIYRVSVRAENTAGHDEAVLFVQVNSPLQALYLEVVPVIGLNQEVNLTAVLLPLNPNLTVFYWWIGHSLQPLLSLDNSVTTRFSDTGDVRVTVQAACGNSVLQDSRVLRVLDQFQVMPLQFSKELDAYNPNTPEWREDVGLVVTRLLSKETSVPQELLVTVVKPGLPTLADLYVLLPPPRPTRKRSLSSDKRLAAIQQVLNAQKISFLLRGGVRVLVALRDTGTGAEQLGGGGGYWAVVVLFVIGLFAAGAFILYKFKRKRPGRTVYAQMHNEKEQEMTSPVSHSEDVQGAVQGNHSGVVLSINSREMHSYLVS

[4] = target: T6, Sortilin expressed on cells (UniProt Q99523 78-831, limits assumed); experiment: cell-cell binding
T6 construct: whole, on cells

[5] = target: T7, human CD28 expressed on HEK 293 cells (human, UniProt P10747 19-220); experiment: Fc fusion titrated on CD28-expressing cells, flow cytometry
T7 construct: whole, on cells; also called CD28-GFP
Procedure: (§2) Three days post transfection cells were counted and diluted to 1×10⁶ cells/mL in 1×PBS 0.2% BSA, pH 7.4. Premixed solutions containing a final concentration of 1 μM Fc-fusion protein and 1.5 μM Alexa 647 goat anti-mouse secondary antibody (ThermoFisher, A-21235) were incubated on ice for 30 min. Subsequently, increasing amounts of the premixed solution was added to wells of a 96-well plate and the volume adjusted to 50 μL with 1×PBS and 100 μL of diluted cells (100,000 cells total) added to the wells. Binding was performed at room temperature for 1 hour, the cells washed 2× with 1×PBS 0.2% BSA by centrifugation and subsequently analyzed by Flow Cytometry on a SONY Spectral Analyzer (SA 3800). Gated live cells were sub-gated for GFP, and GFP-positive cells sub-gated for Alexa-647.

[6] = target: T8, human CTLA-4 expressed on HEK 293 cells (human, UniProt P16410 36-223); experiment: Fc fusion titrated on CTLA-4-expressing cells, flow cytometry
T8 construct: whole, on cells; also called CTLA-4-GFP
T8 sequence (P16410 36-223): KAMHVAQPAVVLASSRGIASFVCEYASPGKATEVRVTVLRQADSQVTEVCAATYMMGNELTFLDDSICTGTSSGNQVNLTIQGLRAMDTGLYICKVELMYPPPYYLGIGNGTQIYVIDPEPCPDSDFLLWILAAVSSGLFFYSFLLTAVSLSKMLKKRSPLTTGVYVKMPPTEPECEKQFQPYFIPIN
Procedure: as §2

[7] = target: T9, human p75 neurotrophin receptor, full length, expressed on HEK 293 cells (Homo sapiens, UniProt P08138 29-427); experiment: Fc fusion titrated on transfected cells, flow cytometry
T9 construct: Full-length human p75 with a cytosolic fluorescent tag (GFP); also called p75NTR; NGFR
T9 sequence: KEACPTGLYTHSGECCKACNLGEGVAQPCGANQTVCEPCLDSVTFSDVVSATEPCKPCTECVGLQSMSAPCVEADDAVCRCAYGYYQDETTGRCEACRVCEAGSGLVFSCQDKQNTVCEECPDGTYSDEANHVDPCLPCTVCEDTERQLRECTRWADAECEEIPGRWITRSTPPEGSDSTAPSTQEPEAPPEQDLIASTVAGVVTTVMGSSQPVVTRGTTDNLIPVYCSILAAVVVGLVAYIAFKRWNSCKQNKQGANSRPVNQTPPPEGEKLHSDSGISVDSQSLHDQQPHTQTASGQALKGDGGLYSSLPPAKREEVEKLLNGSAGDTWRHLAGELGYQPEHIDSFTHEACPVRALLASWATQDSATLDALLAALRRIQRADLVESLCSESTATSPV
Procedure: as §2

mouse p75NTR = target: T10, mouse p75NTR (mouse, UniProt Q9Z0W1 32-427); experiment: cell-cell binding, flow cytometry
T10 construct: whole, on cells; also called mouse p75NTR-GFP; murine p75
T10 sequence (looked up): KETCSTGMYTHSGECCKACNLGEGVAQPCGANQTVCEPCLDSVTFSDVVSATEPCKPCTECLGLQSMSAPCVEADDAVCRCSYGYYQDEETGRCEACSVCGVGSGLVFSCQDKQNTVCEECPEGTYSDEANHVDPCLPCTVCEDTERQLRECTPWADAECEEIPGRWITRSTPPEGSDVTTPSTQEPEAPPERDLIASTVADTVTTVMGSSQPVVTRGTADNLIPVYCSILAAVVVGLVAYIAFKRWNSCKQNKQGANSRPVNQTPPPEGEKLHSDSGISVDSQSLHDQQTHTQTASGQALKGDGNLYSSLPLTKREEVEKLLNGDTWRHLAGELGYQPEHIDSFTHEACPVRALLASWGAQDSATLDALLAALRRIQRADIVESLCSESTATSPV

[8] = target: T11, rat p75NTR expressed on cells (rat, UniProt P07174 30-425); experiment: cell-cell binding, flow cytometry
T11 construct: whole, on cells; also called rat p75NTR-GFP; rodent p75NTR
T11 sequence (looked up): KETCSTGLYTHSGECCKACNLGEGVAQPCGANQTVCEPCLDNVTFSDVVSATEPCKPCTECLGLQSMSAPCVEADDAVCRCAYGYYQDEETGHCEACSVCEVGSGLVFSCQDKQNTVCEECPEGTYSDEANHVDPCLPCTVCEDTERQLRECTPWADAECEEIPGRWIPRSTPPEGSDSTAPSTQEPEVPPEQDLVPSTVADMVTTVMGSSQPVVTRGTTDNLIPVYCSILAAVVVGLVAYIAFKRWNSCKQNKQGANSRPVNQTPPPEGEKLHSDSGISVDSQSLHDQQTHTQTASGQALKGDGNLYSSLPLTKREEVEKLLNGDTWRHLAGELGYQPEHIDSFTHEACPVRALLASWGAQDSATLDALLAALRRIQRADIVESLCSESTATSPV

[9] = target: T9, human p75 neurotrophin receptor, full …; experiment: cell-cell binding, flow cytometry

binding result (FAS expressed on cells): no binding | binding result (TNFR2 expressed on cells): no binding | binding result [1]: no binding | binding result [2]: no binding | binding result [3]: no binding | binding result [4]: no binding
B1: human B7-1 (CD80), full length, expressed on HEK 293 cells (ligand)
chain: VIHVTYEVKEVATLSCGHNVSVEELAQTRIYWQKEKKMVLTMMSGDMNIWPEYKNRTIFDITNNLSIVILALRPSDEGTYECVVLKYEKDAFKREHLAEVTLSVKADFPTPSISDFEIPTSNIRRIICSTSGGFPEPHLSWLENGEELNAINTTVSQDPETELYAVSSKLDFNMTTNHSFMCLIKYGHLRVNQTFNWNTTKQEHFPDNLLPSWAITLISVNGIFVICCLTYCFAPRCRERRRNERL
notes: also called hB7-1; B7-1-mCherry

EC50 [5]: ~9 nM and ~10 nM | EC50 [6]: ~9 nM and ~10 nM | binding result [7]: no binding
B2: B7-1N82E-Fc (Fc fusion)
chain: VIHVTYEVKEVATLSCGHNVSVEELAQTRIYWQKEKKMVLTMMSGDMEIWPEYKNRTIFDITNNLSIVILALRPSDEGTYECVVLKYEKDAFKREHLAEVTLSVKADFPTPSISDFEIPTSNIRRIICSTSGGFPEPHLSWLENGEELNAINTTVSQDPETELYAVSSKLDFNMTTNHSFMCLIKYGHLRVNQTFNWNT
notes: also called recombinant mutant B7-1 N82E; B7-1 N82E Fc fusion protein; not shown: C-terminal deca-His-tagged Fc domain (mIgG2a-His10 or hIgG1-His10)

binding result (mouse p75NTR): no binding | binding result [8]: no binding | binding result [9]: no binding
B3: mouse B7-1 expressed on cells (ligand)
chain: VDEQLSKSVKDKVLLPCRYNSPHEDESEDRIYWQKHDKVVLSVIAGKLKVWPEYKNRTLYDNTTYSLIILGLVLSDRGTYSCVVQKKERGTYEVKHLALVKLSIKADFSTPNITESGNPSADTKRITCFASGGFPKPRFSWLENGRELPGINTTISQDPESELYTISSQLDFNTTRNHTIKCLIKYGDAHVSEDFTWEKPPEDPPDSKNTLVLFGAGFGAVITVVVIVVIIKCFCKHRSCFRRNEASRETNNSLTFGPEEALAEQTVFL
notes: Cytosolic mCherry tag; also called mouse B7-1-mCherry; rodent B7-1
